{
  "source": "paper PMC5676748",
  "about": "“Structural basis for high-affinity actin binding revealed by a β-III-spectrin SCA5 missense mutation” (Nature Communications, 2017)",
  "binders": {"B1": {"name": "WT β-III-spectrin ABD (amino acids 1–284), pE-SUMO construct (domain or fragment)", "chain": "MSSTLSPTDFDSLEIQGQYSDINNRWDLPDSDWDNDSSSARLFERSRIKALADEREAVQKKTFTKWVNSHLARVTCRVGDLYSDLRDGRNLLRLLEVLSGEILPKPTKGRMRIHCLENVDKALQFLKEQKVHLENMGSHDIVDGNHRLTLGLVWTIILRFQIQDISVETEDNKEKKSAKDALLLWCQMKTAGYPNVNVHNFTTSWRDGLAFNAIVHKHRPDLLDFESLKKCNAHYNLQNAFNLAEKELGLTKLLDPEDVNVDQPDEKSIITYVATYYHYFSKMK", "notes": "also called WT ABD; pE-SUMO-ABD WT; source: E. coli BL21(DE3)pLysS, purified (Ni-NTA, Ulp1 cleavage, second Ni-NTA, Sephadex S100 gel filtration)"}},
  "target": "rabbit skeletal muscle actin, filamentous (F-actin) (rabbit (Oryctolagus cuniculus), UniProt P68135 1-377)",
  "assay": "co-sedimentation; 3 µM ABD with F-actin from 0 to 140 µM in F-buffer (10 mM Tris pH 7.5, 150 mM NaCl, 0.5 mM ATP, 2 mM MgCl2, 1 mM DTT), 30 min at 23–24 °C, pelleted at 100,000 x g; unbound ABD in the supernatant quantified on Coomassie gels; fit to Y=X/(Kd+X)",
  "details": "both partners purified",
  "data": [
    {"binder": "B1", "values": [
      {"measurement": "Kd", "result": 75, "unit": "µM"}
    ]}
  ]
}
